# From the nanobody polyreactivity screen of Harvey et al. (2022)
# Assay: yeast display, Sf9 membrane polyspecificity reagent, FACS + sequencing; frameworks hold sequencing errors
# In short: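 Galactose-induced (36–48 hours) yeast carrying a synthetic nanobody display library were exposed to 10% biotinylated, detergent-solubilized Sf9 membrane reagent at 4 °C for 1 hour. FACS followed streptavidin microbead enrichment, using low and high (top ~1%) gates for expression (anti-HA) and reagent binding (streptavidin). Colony PCR, MiSeq 2 × 250 sequencing and CDR-length filtering followed. Labels for polyreactivity reflect the gate of origin.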
row,Sequence,polyreactivity (PSR sort gate)
1,QVQLVESGGGLVQAGGSLRLSCAASGFIFITYDMGWYIQAPGKERELVAVITSGGTTNYADSVKGRFTIARDNAKNTVYLQMNSLKPEDTAVYYCNRDSVLDPGNPNPYGFDYWGQGTQVTVSS,low polyreactivity
2,QVQLVESCGGKVQAGGSLRLSCAASGRIFWYYAMVWYRQAPGKERELVAAIDRTRVRTSYADSVKGRFTISRDNAKNTVYLQMNSLKPEDTAVYYCAADLVYGHYVTYWNSYVYWGQGTEVTVSS,low polyreactivity
3,QVQVVESGGGLVQAGGSLRLSCAASGRTFNPNVMGWYRQAPGKERELVAAISRGGSTYYADSVKGLFTISRDNAKNTVYLQMNSLKPEDTAVYYCAATHYGHSISNWFDYWGQGTQVTVSS,high polyreactivity
4,QVQLVESGGGLVQAGGSLRLSCAASGRTFIKYARGWYRPAPGKERELVAAISRNGGSTNYADSVKGRFTISRDNAKNTVYFQMNSLKPEDTAVYYCAAVGTVSRTVGYNYWGQGTQVTVSS,high polyreactivity
5,QVQQQESGGGLVQAGGSLRLSSAASVTILYTLGLGLYRQAPGKTLEFVASITWGTTTNYAESVKGRFTISRDNAKNSVYLQMNSLKPEDTADYYCAARKFVYWYGMEYWGQGTQVTVSS,low polyreactivity
6,QVQLVESGGGLVQAGGSLRLSCAASGIIFPYYAMGWSRQGPGKERELVAGISSSGGITYADSVKGRFTISRDNAKYTVYLQMNSLKPEDTAVYYCNAEYQWLEYDYWGQGTQVTVSS,low polyreactivity
7,QVQLVESGGGLVQAGGSLRLSCAASGRTFNRYAMGWYRQAPGKERELVAAISYGGGRTYYADSVKGRFTISRDNAKNTVYLQMYSLKPEDTAVYYCNAVFGYQSPGGYDYWGQGTQVTVSS,high polyreactivity
8,QVQLVESGGGLVQAGGSLRLSSADSGRTFWDNTMGWYRQAPGKERELVAAISGGDSTYYADSVKGRFTISRDNAKNTVYLQMNSLKPEDTAVYYCAAAYATPTLYYYWGQGTQVTVSS,low polyreactivity
9,QVQLVESGGGLVQAGGSLRLSCAASGSIFGNNAMGWYRKAPGKERELVAAISSGGSTKYADSVKGRFTISRDNAKNTVYLQMNSLKPEDTAVYYCAKDSWSRAYSWATRVHWRYDYWGQGTQVTVSS,low polyreactivity
10,QVQLVESGGGLVQAGGSLRLSCAASRFIFWSYAMGWYIQAPGTEREMVAAIDMTGGSTYYADYVKGRFTISRDNAKNTVYLQMNSLKPEDTAVYYCNADGDTYAFTNSDSGFDYWGQGTQVTVSS,low polyreactivity
11,QVQLVESGGGLVQAGGSLRLSCAASGRTLYYYTMGWYRQAPGKERELVAAIRWSTGSTYYADSVKGRFTISRDNAKNTVYLQMNSLKPEDTAVYYCNAVVARLIFWQFDYWGQGTQVTVSS,high polyreactivity
12,QVQLVESGGGLVQAGGSLRLSCAASGRTFYNYAMGWYRQAPGKERELVAAITRGGSTYYADSVKGRFTISRDNAKNTVYLQMNSLKPEDTAVYYCNAYYYIPFEGRGYSKLDYWGQGTQVTVSS,high polyreactivity
13,QVQLVESGGGLFQAGVSLRLSCAASGSTFDYYAMGWYRQPPAKERELVAAIRYRGGRTYYADSVKWRFTISRDNAKNTVYLQLNSLKPEDTAVYYCAALTIQSSKTYDYWGQGTQVTVSS,low polyreactivity
14,QVQLVESGGGLVQAGGSLRLTCAASGSIFWDNAMGWYRQAPGKERALFAAITSSGGSTHYADSVKGRFTISRDNAKNTVYLQMYSLKPEDTAVYYCAARRYYGVYYAFLYWGQGTQVTVSS,high polyreactivity
15,QVQLVESGGGLVQAGGSLRLSCAASGRIFDKYAMGWYRQAPGKERELVAAIDWSGGSTYYADSVKGRFTISRDNAKNTVYLQMNSLKPEDTAVYYCAAYWYYEDGQSEARLYGYDYWGQGTQVTVSS,low polyreactivity
16,QVQLVESGGGLVQAGGRLRLSCAASGYIFKNYAMGWDRQAPGKERELVATINYSGGGTYYADSVKGRFTISRDNAKNTVYLQMNSLKQEDTAVYYCAAREKYISYSYYYWGQGTQVTVSS,high polyreactivity
17,QVQLVESGGGLVQAGGSLRLSCAASGRTFPSYTMGWSRQAPGKERELVAAITWTGGSTYYADSVKGRFTISRDNAKNTVYLQMISLKPEDTAVYYCADYDYWGHGTQVTVSS,low polyreactivity
18,QVQLVESGGGLVQAGGSLRLSCAASGRIFLSYAMGWYRQAPGKERELVAAIRSTGTRTYYADSVKGRFTISRDNAKNTVYLQMNSLKPEDTAVYYCAVGDYGLWSYDYWGQGTQVTVSS,low polyreactivity
19,QVQLVESGGGLVQAGGSLRLSCAASGFTFAWYAMGWYRQAPGKERELVAAISWSGGRTYYADSVKGRFTISRDNAKNTVYLQMNSLKPEDTAVYYCAALFLYGYVREYDYWGQGTQVTVSS,high polyreactivity
20,QVQLVESGGGLVQAGGSLRLSCAASGRIFPTYTMGWYRQAPGKERELLAAISGRGGNTYYADSVKGRFTISRDTAKNTVYLQMNSLKPEDTAVYYCAARYPVRNGYWGLGTQVTVSS,high polyreactivity
21,QVQLVESGGGLVQAGGSLRLSCAASGFTFEYYAMGWYRQAPGKERELVAAIDTGGSTNYADSVKGRFTISRDNAKNTVYLQMNSLKPEDTAVYYCAADWSWWDGEDYHFEYDYWGQGTQVTVSS,low polyreactivity
22,QVHLVESGGGLVQSGGSLRLRCAASGSTFYGYTKAWYRQAPGKERELVAAINWSGTRTYYADSVNGRFTISRDTAKNTVYLQMNSLKPEDTAVYYCAAERYYWGLGTQVTVSS,high polyreactivity

row,Sequence,polyreactivity (PSR sort gate)
1,QVQLVESGGGLVQAGGSLRLSCAASGRIFWDIDMGWYRQAPGKEWELVAAISRRGGSTSYADSVKGRFTISRDNAKTTVYLQINSLKPEDTAVYYCNVRTRWTRVRRYDYWGQGTQVTVSS,high polyreactivity
2,QVQIVESGGGLVQAGGSLRLSCAASGSTFNYNAMGWYRQAPGKERELVAAITFTGGSTYADSVKGRFTISRDNAKNTVYLQMNSLKPEDTAVYYCAATIQGHDYLGTGYDYWGQGTQVTVSS,low polyreactivity
3,QVQLVESGGGLVQAGGSLRLSCAASGRIFVANAMGWYRKAPGTERELVAAISRRGGRTYYADSVKGRFTISRDNAKNTVYLQMNSLKPEDTAVYYCAAIRSVTRFPRRYDYWGQGTPVTVSS,high polyreactivity
4,QVQLVESGGGLVQAGGSLRLSCAASGSIFWIYAMGWYRQAPGKERELVATITRRGGSTYYADSVKGRFTISRDNAKNTGYLQMNSLKPEDSAVYYCATEPGYTYLTSYKYDYWGQGTQVTVSS,low polyreactivity
5,QDQLVDSGGGLVQAGGSLRLSCAASGFTLAYNTMGWYRQAPGKERELVASITSSGSSTYYADSEKGRFTITRDNGKYNVYLEMNSLKPEDTAVYYFNKVRPRKFWDYYYWGQGTQVTVSS,high polyreactivity
6,QVQLVESGVGLVQAGGSLRLSCAASGFIFPTNTMGWYRQAPGKEREFVARITRSGTNTYYADSVKGRFTISRDNAKNTVYLQMNSLKPEDTAVYYCATRYYHFNYWGQATQVTVSS,high polyreactivity
7,QVQLVESGGGLVQAGGSLSLSCAASGPTFTQNVMGWYRQAPGKERELVAGISSGDITNYADSVKGRFTISRDNAKNTVYLQMNSLKPEDTAVYFCTYYGKSGGYRYTYYYWGQGTQVTVSS,high polyreactivity
8,QVQLVESGGRLVQAGGSLSLSCAASGRTFGGYNMGWYRQAPGKERELVAAINWSGTTYYADSVKGRFTISRDNAKNTVYLQMNSLKPVDTAVYYCAASLVSYYGLARDSVDYWGQGTQVTVSS,low polyreactivity
9,QVQLVESGGGLVQAGGSLRLSCAASGLIFRAYGMGWYIQAPGKERELLAAITWNGGSTNYADSVKGRFTISRDNAKNTVYLQMNSLKPEDTAVYYCAARLAGRGSSSSRVVRTGGYWGQGTQVTVSS,high polyreactivity
10,QVQLVESGGGLVQAGGSLRLSCAASGSTYATYAMGWYRQAPGKERELVAVITRGGRTYYADSVKGRFTISRDNAKNTVYLQMNSLKPEDTAVYYCAARTLWYVIFTLHDYNYWGQGTQVTVSS,high polyreactivity
11,QVQLVESGGGLVQAGGSLRLSCAASGFIFQRYAMGWYRPAPGKERELVAAISWSGGSTSYADSVKGRFTISRDNAKNPVYLQMYSLKPVDTAVYYCAARRPVYRKYGDRGRWYNYWGQGTQVTVSS,high polyreactivity
12,QVQLVESGGGLDQAGGSLRLSCAASGRIFEYNAMGWYRQAPGKERELVAAINYNDVSTYYADSVKGRFTISRDNAKNTVFFQINSLKPEDTAVYYCNVYGDKWSAAYGEYVYWGQGTQVTVSS,low polyreactivity
13,QVQLVESGGGLVQAGGSLRLSCAASGIILYGYAMGWYRQAPGKARELVAALTWSGGSTYYADSVKGRFTISRDNAKNTVYLQMNSLKPEDTAVYYCAVDVHTSADASLPQEYDYWGQGTQVTVSS,low polyreactivity
14,QVQLVESGGGLVQAGGRLRLSCAASGRIFYPYDMGWYRQEPGKERELVAAISRSDGITYYADSVKGRFTISRDNAKNTVYLQMKSLKPEDTPVYYCAADDPSGHYPDFEYWGQGTQVTVSS,low polyreactivity
15,QVQFVESGGGLVQAGGSLRLSCAASGSTFQGYAMGWYRQAPGKERELVAAISRSGGRTYYADSVKGRFTISRDNAKNTVYLQMNSLKPEDTAVYYCAKYYWAPTGAHGGYGYWGQGTQVTVSS,low polyreactivity
16,QVQLVESGGGLVQAGGSLRLSCAACGSIFVRNTMGWDRQAPGKERELVASIDWSGGITSYADSVKGRFTISRDNAKNTVYLQMNIRKPEDTAVYFCNAVFLYPFNVPTMEYWGQGTQVTVSS,low polyreactivity
17,QVQLVESGGGLVQAGGSLRLSCAASGSTFPPNAMGWYRQAPGKERELVAAISASGGRTYYADSVKGRFTISRDNAKNTVYLQMNSLKPEDTAVYYCNARGGRYGRGSSDQLDYYWGQGTQVTVSS,high polyreactivity
18,QVQLVESGGGLVQAGGSLRLSCAASGSIFGYYAMGWYRQAPGKERELVAAISWSGGRTYYADSVKGRFTISRDNAKNTVYLQMNSLKPEDTAVYYCNARWRSGPRAYDYWGQGTQVSVSS,high polyreactivity
19,QVQLVESGGGLVQAGGSLRLSCAASGSIFVYYAMGWYRQAPGKERELVAAITSGGSTNYADSVKGRFTISRDNAQNTVYLQMNSLKPEDTAVYYCAVVTRAHPEDYWGQGTQVTVSS,high polyreactivity
20,QVQLVESGGGLVQAGGSLRLSCAASGFTFIKYAMGWSRQAPGNEMEFVAAITRSGTSTYYADSVKGRFTISRDNAKNTVYLQMNSLKPEDTAVYYCAATYPRYYSGEFDYWGQGTLVTVSS,high polyreactivity
21,QVQLVESGGGLVQAGGSLRLSCAASGRTFNDYTMGWYRQAPGKERELVAAISSSGVRTYYADSVKGRFTISRDNAKNTVYLQMNSLKPEDTAVYYAKRAGYDRRWTYDYWGQGTQVTVSS,high polyreactivity
